# Results published in patent US10683329B2, “Dual-site BACE1 inhibitors” (priority 2014, dated 2020).
# *1 amine or outer side, *2 acyl side, *3 side chain or, on linkers, in order; H or OH if unused. Where no end group is shown, it is not given here. [ ]: non-standard residue; d: D form. The star is where a group is joined. Chol‑27‑TFA‑ester = succinamic acid (3S,8S,9S,10R,13R,14S,17R)-17-[(1R,5R)-1,5-dimethyl-6-(2,2,2-trifluoro-acetoxy)-hexyl]-10,13-dimethyl-2,3,4,7,8,9,10,11,12,13,14,15,16,17-tetradecahydro-1H-cyclopenta[a]phenanthren-3-yl ester, C[C@H](CCC[C@@H](C)[C@H]1CC[C@H]2[C@@H]3CC=C4C[C@@H](OC(=O)CCC(=O)*)CC[C@]4(C)[C@H]3CC[C@]12C)COC(=O)C(F)(F)F; MetSta(3S,4S) = CSCC[C@H](N[*:1])[C@@H](O)CC(=O)[*:2]; Sta = CC(C)C[C@H](N)[C@@H](O)CC(=O)O; 27‑OH‑Chol = 27-hydroxycholesterol; PEG4 = NCCOCCOCCOCCOCCC(=O)O; Lauroyl = CCCCCCCCCCCC(=O)*; PEG3 = NCCOCCOCCOCCC(=O)O; Aun = NCCCCCCCCCCC(=O)O; Ahx = NCCCCCC(=O)O
# B1: Tyr-Pro-Tyr-Phe-Ile-Pro-Leu-Gly-Gly-Gly-Glu-Val-Asn-Leu*Ala-Ala-Glu-DPro-Lys(Chol)-NH2 x TFA (peptide)
# peptide: YPYFIPLGGGEVNLAAE[dP]K(Chol)-NH2
# modifications: also: Leu14*Ala15 Tang hydroxyethylene dipeptide isostere, trifluoroacetate salt
# Target: BACE1 enzyme (UniProt P56817 46-501, limits assumed)
# Sequence (P56817 46-501 limits assumed): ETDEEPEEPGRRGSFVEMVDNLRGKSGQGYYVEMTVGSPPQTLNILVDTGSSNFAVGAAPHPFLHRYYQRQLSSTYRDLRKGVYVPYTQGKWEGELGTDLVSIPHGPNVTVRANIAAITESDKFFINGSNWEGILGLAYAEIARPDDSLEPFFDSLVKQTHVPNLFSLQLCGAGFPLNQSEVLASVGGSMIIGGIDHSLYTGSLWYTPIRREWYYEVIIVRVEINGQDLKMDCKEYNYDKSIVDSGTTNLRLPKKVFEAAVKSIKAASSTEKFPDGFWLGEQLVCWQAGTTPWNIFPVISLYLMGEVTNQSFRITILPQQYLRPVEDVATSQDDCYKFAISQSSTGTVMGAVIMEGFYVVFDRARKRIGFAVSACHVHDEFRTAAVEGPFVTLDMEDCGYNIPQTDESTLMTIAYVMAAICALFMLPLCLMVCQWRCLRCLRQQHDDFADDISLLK
# Test: cell-based or functional assay
row,Binder,"IC50, cellular Aβ-lowering assay (Aβ40 in supernatant of HEK293 cells expressing human APP695) [nM]"
1,YPYFIPLGGEVN[Sta]VAE[dP]K(Chol)-NH2 (also: x TFA salt) [Tyr-Pro-Tyr-Phe-Ile-Pro-Leu-Gly-Gly-Glu-Val-Asn-Sta-Val-Ala-Glu-DPro-Lys(Chol)-NH2 x TFA],0.27
2,YPYFIPL[Ahx]EVN[Sta]VAE[dP]K(Chol)-NH2 (also: TFA salt) [Tyr-Pro-Tyr-Phe-Ile-Pro-Leu-NH(CH2)5CO-Glu-Val-Asn-Sta-Val-Ala-Glu-DPro-Lys(Chol)-NH2 x TFA],0.075
3,YPYFIPL[Aun]EVN[Sta]VAE[dP]K(Chol)-NH2 (also: TFA salt) [Tyr-Pro-Tyr-Phe-Ile-Pro-Leu-NH(CH2)10CO-Glu-Val-Asn-Sta-Val-Ala-Glu-DPro-Lys(Chol)-NH2 x TFA],0.36
4,YPYFIPLGGGGGGEVN[Sta]VAE[dP]K(Chol)-NH2 (also: TFA salt),0.028
5,YPYFIPL[PEG3]EVN[Sta]VAE[dP]K(Chol)-NH2 (also: TFA salt) [Tyr-Pro-Tyr-Phe-Ile-Pro-Leu-PEG(3)-Glu-Val-Asn-Sta-Val-Ala-Glu-DPro-Lys(Chol)-NH2 x TFA],0.043
6,YPYFIPL[PEG4]EVN[Sta]VAE[dP]K(Chol)-NH2 (also: TFA salt) [Tyr-Pro-Tyr-Phe-Ile-Pro-Leu-PEG(4)-Glu-Val-Asn-Sta-Val-Ala-Glu-DPro-Lys(Chol)-NH2 x TFA],0.027
7,Ac-YPYFIPL[PEG4]EVN[Sta]VAE[dP]K(Chol)-NH2 [Ac-Tyr-Pro-Tyr-Phe-Ile-Pro-Leu-PEG(4)-Glu-Val-Asn-Sta-Val-Ala-Glu-DPro-Lys(Chol)-NH2],0.041
8,LIYFPYPGGGEVN[Sta]VAE[dP]K(Chol)-NH2 (also: x TFA salt) [Leu-Ile-Tyr-Phe-Pro-Tyr-Pro-Gly-Gly-Gly-Glu-Val-Asn-Sta-Val-Ala-Glu-DPro-Lys(Chol)-NH2 x TFA],0.22
9,LIYFPYPGGGGEVN[Sta]VAE[dP]K(Chol)-NH2 (also: x TFA salt) [Leu-Ile-Tyr-Phe-Pro-Tyr-Pro-Gly-Gly-Gly-Gly-Glu-Val-Asn-Sta-Val-Ala-Glu-DPro-Lys(Chol)-NH2 x TFA],0.28
10,YPYFIPLGGGEVN[Sta]VAE[dP]K(Lauroyl)-NH2 (also: x TFA salt) [Tyr-Pro-Tyr-Phe-Ile-Pro-Leu-Gly-Gly-Gly-Glu-Val-Asn-Sta-Val-Ala-Glu-DPro-Lys(C12)-NH2 x TFA],450
11,YPYFIPLGGGEVN[Sta]VAE[dP]K(C14)-NH2 (also: x TFA salt) [Tyr-Pro-Tyr-Phe-Ile-Pro-Leu-Gly-Gly-Gly-Glu-Val-Asn-Sta-Val-Ala-Glu-DPro-Lys(C14)-NH2 x TFA],140
12,YPYFIPLGGGEVN[Sta]VAE[dP]K(Chol)-NH2 (also: x TFA salt) [Tyr-Pro-Tyr-Phe-Ile-Pro-Leu-Gly-Gly-Gly-Glu-Val-Asn-Sta-Val-Ala-Glu-DPro-Lys(Chol)-NH2 x TFA],0.027
13,YPYFIPLGGGEVN[Sta]VAE[dP]K(27‑OH‑Chol)-NH2 (also: x TFA salt) [Tyr-Pro-Tyr-Phe-Ile-Pro-Leu-Gly-Gly-Gly-Glu-Val-Asn-Sta-Val-Ala-Glu-DPro-Lys(27-OH-Chol)-NH2 x TFA],6.3
14,YPYFIPLGGGEVN[Sta]VAE[dP]K(Chol‑27‑TFA‑ester)-NH2 (also: x TFA salt),5.2
15,YPYFIPLG[dK]GEVN[Sta]VAE[dP]K(Chol'ester')-NH2 (also: x 2TFA salt),0.025
16,YPYFIPLGGGEVN[Sta]VAEFK(Chol)-NH2 (also: x TFA salt) [Tyr-Pro-Tyr-Phe-Ile-Pro-Leu-Gly-Gly-Gly-Glu-Val-Asn-Sta-Val-Ala-Glu-Phe-Lys(Chol)-NH2 x TFA],0.19
17,YPYFIPLGGGGEVNXVAEFK (MetSta at 15; DPhe at 19; Lys(Chol) at 20; C-terminal NH2) [Tyr-Pro-Tyr-Phe-Ile-Pro-Leu-Gly-Gly-Gly-Gly-Glu-Val-Asn-MetSta-Val-Ala-Glu-DPhe-Lys(Chol)-NH2 x TFA],0.052
18,YPYFIPLGGGGGEVNXVAEFK (MetSta at 16; DPhe at 20; Lys(Chol) at 21; C-terminal NH2),0.07
19,"YPYFIPL[PEG3]EVN[MetSta(3S,4S)]VAE[dF]K(Chol)-NH2 (also: TFA salt) [Tyr-Pro-Tyr-Phe-Ile-Pro-Leu-PEG(3)-Glu-Val-Asn-MetSta-Val-Ala-Glu-DPhe-Lys(Chol)-NH2 x TFA]",0.036
20,"YPYFIPL[PEG4]EVN[MetSta(3S,4S)]VAE[dF]K(Chol)-NH2 (also: TFA salt) [Tyr-Pro-Tyr-Phe-Ile-Pro-Leu-PEG(4)-Glu-Val-Asn-MetSta-Val-Ala-Glu-DPhe-Lys(Chol)-NH2 x TFA]",0.018
21,"YPYFIPLGGGEVN[MetSta(3S,4S)]VAE[dF]K(C14)-NH2 (also: x TFA salt) [Tyr-Pro-Tyr-Phe-Ile-Pro-Leu-Gly-Gly-Gly-Glu-Val-Asn-MetSta-Val-Ala-Glu-DPhe-Lys(C14)-NH2 x TFA]",1260
22,B1,0.0024

row,Binder,"IC50, cellular Aβ-lowering assay (Aβ40 in supernatant of HEK293 cells expressing human APP695) [nM]"
1,Ac-YPYFIPLGGGEVN[Sta]VAE[dP]K(Chol)-NH2 (also: x TFA salt) [Ac-Tyr-Pro-Tyr-Phe-Ile-Pro-Leu-Gly-Gly-Gly-Glu-Val-Asn-Sta-Val-Ala-Glu-DPro-Lys(Chol)-NH2],0.017
2,YPYFIPLGGGEVN[Sta]VAE[dP]K(Chol'ether')-NH2 (also: x TFA salt) [Tyr-Pro-Tyr-Phe-Ile-Pro-Leu-Gly-Gly-Gly-Glu-Val-Asn-Sta-Val-Ala-Glu-DPro-Lys(Chol'ether')-NH2 x TFA],0.0264
3,YPKFIPLGGGEVN[Sta]VAE[dP]K(Chol)-NH2 (also: x 2TFA salt) [Tyr-Pro-Lys-Phe-Ile-Pro-Leu-Gly-Gly-Gly-Glu-Val-Asn-Sta-Val-Ala-Glu-DPro-Lys(Chol)-NH2 x 2TFA],0.0135
4,YPYFKPLGGGEVN[Sta]VAE[dP]K(Chol)-NH2 (also: 2TFA salt) [Tyr-Pro-Tyr-Phe-Lys-Pro-Leu-Gly-Gly-Gly-Glu-Val-Asn-Sta-Val-Ala-Glu-DPro-Lys(Chol)-NH2 x 2TFA],0.00732
5,YPYFIKLGGGEVN[Sta]VAE[dP]K(Chol)-NH2 (also: x 2TFA salt) [Tyr-Pro-Tyr-Phe-Ile-Lys-Leu-Gly-Gly-Gly-Glu-Val-Asn-Sta-Val-Ala-Glu-DPro-Lys(Chol)-NH2 x 2TFA],0.0117
6,YPYFKPL[PEG4]EVN[Sta]VAE[dP]K(Chol)-NH2 (numbers in words are those of the source; also: 2TFA salt) [Tyr-Pro-Tyr-Phe-Lys-Pro-Leu-PEG(4)-Glu-Val-Asn-Sta-Val-Ala-Glu-DPro-Lys(Chol)-NH2 x 2TFA],0.0235
7,YPYFIKL[PEG4]EVN[Sta]VAE[dP]K(Chol)-NH2 (numbers in words are those of the source; also: x 2TFA salt) [Tyr-Pro-Tyr-Phe-Ile-Lys-Leu-PEG(4)-Glu-Val-Asn-Sta-Val-Ala-Glu-DPro-Lys(Chol)-NH2 x 2TFA],0.0228
8,YPKFIPLG[dK]GEVN[Sta]VAE[dP]K(Chol)-NH2 (also: x 3TFA salt) [Tyr-Pro-Lys-Phe-Ile-Pro-Leu-Gly-DLys-Gly-Glu-Val-Asn-Sta-Val-Ala-Glu-DPro-Lys(Chol)-NH2 x 3TFA],0.0203
9,YPYFKPLG[dK]GEVN[Sta]VAE[dP]K(Chol)-NH2 (also: 3TFA salt) [Tyr-Pro-Tyr-Phe-Lys-Pro-Leu-Gly-DLys-Gly-Glu-Val-Asn-Sta-Val-Ala-Glu-DPro-Lys(Chol)-NH2 x 3TFA],0.0263
10,YPYFIKLG[dK]GEVN[Sta]VAE[dP]K(Chol)-NH2 (also: x 3TFA salt) [Tyr-Pro-Tyr-Phe-Ile-Lys-Leu-Gly-DLys-Gly-Glu-Val-Asn-Sta-Val-Ala-Glu-DPro-Lys(Chol)-NH2 x 3TFA],0.0176
11,YPYFIPLGKGEVN[Sta]VAE[dP]K(Chol)-NH2 (also: 2TFA salt) [Tyr-Pro-Tyr-Phe-Ile-Pro-Leu-Gly-Lys-Gly-Glu-Val-Asn-Sta-Val-Ala-Glu-DPro-Lys(Chol)-NH2 x 2TFA],0.0295
12,YPYFIPLGGGEVN[Sta]DAE[dP]K(Chol)-NH2 (also: x TFA salt) [Tyr-Pro-Tyr-Phe-Ile-Pro-Leu-Gly-Gly-Gly-Glu-Val-Asn-Sta-Asp-Ala-Glu-DPro-Lys(Chol)-NH2 x TFA],18
13,YPYFIPLKGGEVN[Sta]VAE[dP]K(Chol)-NH2 (also: 2TFA salt) [Tyr-Pro-Tyr-Phe-Ile-Pro-Leu-Lys-Gly-Gly-Glu-Val-Asn-Sta-Val-Ala-Glu-DPro-Lys(Chol)-NH2 x 2TFA],0.0235
14,YPYFIPL[dK]GGEVN[Sta]VAE[dP]K(Chol)-NH2 (also: x 2TFA salt) [Tyr-Pro-Tyr-Phe-Ile-Pro-Leu-DLys-Gly-Gly-Glu-Val-Asn-Sta-Val-Ala-Glu-DPro-Lys(Chol)-NH2 x 2TFA],0.177
15,YPYFIPLGGKEVN[Sta]VAE[dP]K(Chol)-NH2 (also: 2TFA salt) [Tyr-Pro-Tyr-Phe-Ile-Pro-Leu-Gly-Gly-Lys-Glu-Val-Asn-Sta-Val-Ala-Glu-DPro-Lys(Chol)-NH2 x 2TFA],0.0771
16,YPYFIPLGG[dK]EVN[Sta]VAE[dP]K(Chol)-NH2 (also: x 2TFA salt) [Tyr-Pro-Tyr-Phe-Ile-Pro-Leu-Gly-Gly-DLys-Glu-Val-Asn-Sta-Val-Ala-Glu-DPro-Lys(Chol)-NH2 x 2TFA],0.118
17,YPKFIPLG[dK]GEVN[Sta]VAE[dP]K(Chol'ether')-NH2 (also: x 3TFA salt),0.00828
18,YPKFKPLG[dK]GEVN[Sta]VAE[dP]K(Chol)-NH2 (also: x 4TFA salt) [Tyr-Pro-Lys-Phe-Lys-Pro-Leu-Gly-DLys-Gly-Glu-Val-Asn-Sta-Val-Ala-Glu-DPro-Lys(Chol)-NH2 x 4TFA],0.0218
19,KPYFIPLG[dK]GEVN[Sta]VAE[dP]K(Chol'ester')-NH2 (also: x 3TFA salt),0.02
20,YKYFIPLG[dK]GEVN[Sta]VAE[dP]K(Chol'ester')-NH2 (also: x 3TFA salt),0.25
21,YPYKIPLG[dK]GEVN[Sta]VAE[dP]K(Chol'ester')-NH2 (also: x 3TFA salt),2.3
